19 sequences from a protein production outcome set (Wang et al. 2014) can be followed below.

This data set is described as follows: label from the status in PepcDB records.
Consider “MAATTGLETLVDQIISVITNDGRNIVGVLKGFDQATNIILDESHERVFSTKEGVQQHVLGLYIIRGDNIGVIGELDEELDASLDFSKLRAHPLKPVVH”, for which the protein production entry is reported as “failed”.
Turning to “MAAWVIWFIIAGILFIAEMLSITFYMLWLGIGAVVGGLIALFAPDALLLQVTVGAIVSLTLTFFTKRISKNFREAKGFTDTVDMLVGKRGIVMQAITNEANGIVKVDGDTWTAIADSSIDAGEKVVVIKRHSTILQVKKESE”, the protein production entry is given as “failed”.
For “MAAYLERCDSVEEDYIDMEVTSFTNLVRKTLSNNYPREFEFQMSHLCPLEIDKTTSPADELFYKGKLLPLHLPPRLQMVQKILEDYTFDDEFYSTPLATGTVTTPVTSNTPFESCTVSPAESCQVSKELNPEDYFLEYSDSLEEDDEKKKSWTTKLRLMKQSSLGTKIKASRAYLRSFFGKTSCSDESSCASSAARVADEDSVLRYSRVKPFGQIKTERPKKQSNGSVSGSHRRSFSVSMRRQAAKSSNNKSSNSLGFRPLQFLKRSTSSSSEIENSIQGAILHCKQSQQQKQKQKQYSTVNEVGFCSLSASRIAARDDQEWAQMFRG”, the protein production result is “failed”.
On to “MACFMALVLARFGFGFCMLLAALVLLAAATLLATRLVGWAVRAFALERSQALASGVAIFILVALALWGCHAVGEVLYGAIGATALVGGAPHWLAGNSHVSAAALMGATTAAAMLAGGPAFWRWLRARRAAAAEQPAPRKAAPPKGAKPAARAAKAAAKTQIAPRGQRIPWLGWTAFFLLFIGAAVLAFAYIVAPIEAGASGLRLEHATRARPVYLAGLTLLGGGAFFLLAWLSRRRLPGD”, for which the protein production entry was “failed”.
In the case of “MADALKIGIAGLGTVGASLVRIIQQKSNELAVTCGRPITITAVSARDKTRDRGVDLSAVAWFDRPEDLAEKGDIDVFVELMGGAEGAANVSVRAALQRGLHVVTANKALLAYHGVELATIAEEKGSLLNFEAAVAGGIPVIKALRESLTGNAVSRIYGIMNGTCNYILTKMEKEGLSFAECLKEAQRLGYAEADPAFDIEGNDTAHKLAILTTLAFGNRIAADDIYLEGITNISIEDIHAAAELGYRIKLLGVAQRTETGIEQRVHPTMVPVDSVIAQVDGITNAVAIESDVLGELLMVGPGAGGNATASSVLGDIADIAKSQPGAQRVPVLGHPAKALEPYRKAQMQSHEGGYFIRLTVLDRTGVFASVATRMAENHISLESIVQRSTQHLAPSHHQTIILVTHATMEESVRKAVASIRSEGYLFGEPQVIRIERPKEEA”, the protein production entry is reported as “failed”.
“MADDIRILMCPPDHYDVDYVINPWMEGNIHKSSQERAVEQWKKLHQTIKECAIVDLVKPAKGWPDMVFTANAGLVLGENVVLSRFYHKERQGEEPYFKAWFEENGFTVYELPQDLPFEGAGDALFDREGRWLWAGYGFRSELDSHPYIAKWLDTEVVSLRLIDERFYHLDTCFCPLSGGYLLYYPPAFDAYSNRVIEMRIPPEKRIIVEELDAVNFACNAVNVNDIIIMNLVSRTLKEKLAEAGFKVRETPLTEFLKAGGAAKCLTLRVTEPILPDVHATVSIESRVIRMEGHLLDAGILNQALDLVVENSGSFRVLNFNLGVERNSTSSAEVRVSAPSHQIMEEIMTELIDLGAVPPPQELCDINTETVTQGGVAPDDFYVSTIYPTEVRVNCEWVQVTGQRMDAAIVVTSNPPSARCVLLRDLQVGDRVMVGVEGIRTIKKVESHEGGTRKENKEFAFMAAGVSSERRVELLVEQIAWEMRQIRDQGGKIVVTAGPVVIHTGGAQHLSHLVREGYVHALLGGNAIAVHDIEQATMGTSLGVDMQRGIPVRGGHRHHLKIINSVRRYGGIRQAVEAGFISKGVMYECVKNNIPYCLAGSIRDDGPLPDTEMNLVRAQSRYSELIQGADMILMLSSMLHSIGVGNMTPSGVKMVCVDINPAVVTKLSDRGSVESVGVVTDVGLFLSLLVRQLQQLTRPYSLAETL”: the protein production result is on record as “failed”.
Take “MADDKKKRNKKKKRSTGNKRKMTTEQSEAFKSITDWLILGSSPSLSSSSDDFAVNINSGSLRCGEKVVFELHSHSNRSDGFLSPSKVVERAYNNGVKVLSLTDHDTMAGVPEAVEAGRRFGIKIIPGIEISTLFGLRDSGSEEPVHILAYYGTSGPALYDELEDFLVKIRDGRFVRGREMVLKLNKLKIPLKWEHVTRIAGKDVAPGRMHVARALLEAGYVENLRQAFTKYLHDGGPAYATGTEPMAEEAVKLICKTGGVAVLAHPWALKNHVGIIRRLKDAGLHGVEVYRSDGKLEVFSELADTYNLLKLGGSDYHGKGGRNESELGSVNLPVTALQDFLNVGRPIWCEAIKATMRAFLDQPSDSNLSNILRFDKARILKGNSAWSCGKELMDRCLAIWLTSDERNSNDFEALRLKLSFVPIMSNGTCVTVGP”: the protein production result is recorded as “failed”.
Turning to “MADETNALRQKNRELNKKIDWQKDYDREKLERDNRDLEQCKEDLLAANENLRNRIQEWENEKNKLDPRDERIKELEEEKRELEGILAQKENAEQKYNTLSVKNKQLEAELDMLNEKFEKLKNMYAGVEDFEKRQKNIKEQIVKTNPKVLGAPSNEVEELAFLERIEKGMQEFNVFYPKRLLYMFHTALKSTSLSPLSVLSGVSGTGKSELPKLYVHFGGLNFLSIAVQPTWDSPESLMGYFHAIENKFDATEFLRFFIQTTLSNNEEPYGLKEAMSIVLLDEMNLAHIELYFAEFLSKLEIKCSQETNISIKLGTGLTWELPLGDNLLFVGTMNEDESTKMLSDKVLDRAFCLNFERPKILKGKQQKPIPSNDGYLKVETFNRWINKKGDQEAKLEGKYKKLTEEINERLDACGRSIGHRVWQSMSTYMHNHPLVLHASDKNKALQFAYEECLVLKIFPKLRGVQTRNNQHLTKIQDLLKDFSVSSDFKQAMENDFKEFVFNSTNYLNNVEYEKLLKK”, the protein production result is on record as “failed”.
With “MADFKIVISDPQAPKEETVVKVKVVGDPEIKFDENVKEGFELPILKMNSKTAEKIKAVHGVATIRMYKPGTKDKVKITGKIIVDDNIPENEVRVNAEQLVNATGTNELEGELFRARAWQIRINDDRTKLLIGLKIGDEFDGSIVGLKNVKLKIRGGSDNSGFPMRPDVMGGVKKRVLLSGPPGFHPREKGERRRKMIRGNTITEDIVQINTVIKYV”, the protein production entry is “failed”.
The entry for “MADFSRLPGPNADLWDWQLLAACRGVDSSLFFHPEGERGAARSARENSAKEVCMRCPVRAECAAHALAVREPYGVWGGLTEDEREELMGRARNRLVAATASASAGGEAAGPH” is “failed”.
“MADFTLSKSLFSGKYRNASSTPGNIAYALFVLFCFWAGAQLLNLLVHAPGVYERLMQVQETGRPRVEIGLGVGTIFGLIPFLVGCLIFAVVALWLHWRHRRQ”: the protein production result is listed as “failed”.
As to “MADLINILNHFVQEQPEAVAVRHTNDELTYKQLDEESSKLAHLLQDSKKPMILYGHMSPYMIVGMIGAIKSGCGYVPIDTSVPKERVNMIIDKVQPEIIFNTSDETLEQTNAQVLKVSDIQDSQYPIVFDSQMKQNDVVYTIFTSGSTGEPKGVQIEYASLNEFAEWMVSLNKTGTGKEWLNQAPFSFDLSVMAIYPCLTSGGTLNLVDKDMIKKPKLLNEMLVQTPMNVWVSTPSFIEMCLLLPNLNEQQYSSLKQFFFCGEILPHKTAKALVERFPNSMIYNTYGPTEATVAVTSIQITEEILNQYNPLPVGVARPGTKLFATEEGELVIEGQSVSLGYLKNEEKTTAVFNFEDGVRTYHTGDKAKIEDGLWFIQGRIDFQIKLNGYRMELEEIETQLRQSKHVREAVVVPVYKNGKVIHLIGAVVPTEPVEDNLAMTTHIKHELKSRLPEYMIPRKFEWMEQLPLTSNGKLDRKKIAEVVNG”, the protein production entry was “failed”.
Regarding “MADQGLEESNPMDLSKHPSGIVPTPHSQVIYKMPPRIAAIRLVSSHREVYEPCDDSFALVDALLADRTNLIEHNPKICMEIGCGSGYVITSLILLLQNEVPGVHYLAIDTNPIATRVTKETLEAHGVNADVICADLATGLEKRLAGSVDVIVVNPPYVPTPEYEVGMEGIASAWAGGENGRTVIDKILPVVDLLLSEKGWFYLVTLTSNFPAEICLMMRKKGYASRIVVQRSTEEENLVILKFWRDKDEESQDKETSSSSFVSQFSKSLSSLMEKQWR”, the protein production result is reported as “failed”.
In the case of “MADQNRSEEKTVKSPNVFERVKEEIEAMGHHEKSKSRHHDKETHGTSDDIDESTPIDYVKGPGFFQRLKEEIEAIFNAVTPKRSSKK”, the protein production result is listed as “failed”.
As to “MADTHPLVTVETIVLVGLGGFAGSNLRYFVGLFFPGLQGTLLVNVCGSFALGVLVYEGLQVGALASETKLAASTGFISSFTTYSTFAVETVLTPEWAVANVVGSYALGFAGVLVGREVVRLFAGGGQ”, the protein production result was “failed”.
Take “MADTITVSIVLAYFVVTLALGFFAARKIKTAEHYYGARKLFGMFVTAVAVFSGIASAFTFIGGPGLVYPMGGTVNWVIWTPVISMPLIWYLLGKRIKLITEARPVATLPDLTAARFKSDAVRFLTAVALIFGIITYLAGNVMGAGLVLTDMLGTPLELSIAIVFGIIMLYTAFGGMVASILTDFFQGLVMMVAAIIFVVFILIMTGGVENLFATIAESNPRHIDPIGVGPIWLGIMGWWWALNIGSSVQPHAVTKFFALKDYRDLKWGALVTTIAWTLACLMWFFGGYASVWVVIKGLAEAPARSDQAIFGVIAQMPVVLKAVIYAGVLAAIMSTVSGFISMGTAAVVRDIPTAIGKSLSQRGQILWGRVVTVILTVVAALFGYYGGYVVGILVTLGLGYFASMLFPLLVIGLNWKRATKEAAIITTALTVAMNLGFLVYEKVLSMSLPYGLPGYGVTFAVGIITMVLVSLITKGAALDDMDEDIRAAMSL”: the protein production result was “failed”.
With “MADTRPERRFTRIDRLPPYVFNITAELKMAARRRGEDIIDFSMGNPDGATPPHIVEKLCTVAQRPDTHGYSTSRGIPRLRRAISRWYQDRYDVEIDPESEAIVTIGSKEGLAHLMLATLDHGDTVLVPNPSYPIHIYGAVIAGAQVRSVPLVEGVDFFNELERAIRESYPKPKMMILGFPSNPTAQCVELEFFEKVVALAKRYDVLVVHDLAYADIVYDGWKAPSIMQVPGARDVAVEFFTLSKSYNMAGWRIGFMVGNKTLVSALARIKSYHDYGTFTPLQVAAIAALEGDQQCVRDIAEQYKRRRDVLVKGLHEAGWMVEMPKASMYVWAKIPEPYAAMGSLEFAKKLLNEAKVCVSPGIGFGDYGDTHVRFALIENRDRIRQAIRGIKAMFRADGLLPASSKHIHENAE”, the protein production entry is “failed”.
Take “MADTSPSACLVFQGSGFYAKLSDFRACLTGFMLPLSPSLLPTLAAAVLYAAATFYQGSRLATGAKANKRLLVTLGILALLAHAASLLTHLLTPVGLGLDFFSAASLIAAAVIALTLLACWRIPVENLLVLLFPLGALTALLAQFVPTGTVPVIDEEPGILAHILLSILAYGMFTIAVFQALLLLVQDHQLKNKHPSGLIRNFPPLQTMESLLFGFLWAGWTLLSLSLISGWLFVENLFAQHLVHKTLLACLAWVVFSVLLWGRNRLGWRGHKAIRWTLAGFCLLMLAYFGSKLVREYILHI”: the protein production entry is listed as “failed”.
As for “MADYNNAVVFYDTSGIEYSKQIKKTLERGFERECFLINLDNRENTLSRLNLAMKTSKYVIFLFSSMYSNENMLDEAKTAFNSDKHIISLKLDDPELKKQISIHQSEFEDNYGLSKKVNDEVEKLKKMEKKGTDFVESQISFNMGNIYFNFGKYAEAIRCYKKAVKIIPDFVDALHNFNSLSNMNLFDMGEEPKKPVLYKDVTIDELVPDIFSNTVQKEPEEPQKYSELEPEELEDLILDGEIGENLEEIGSEDELTEKIDDKLPEIDESKDKSKAQPEDELNETFEEGIEYETFEVIDAEEKNEISDENLEISSLEPEFEEKSIFKLEKETEQPELEENLEPVLEVPEELVEDVEILDASEEDIEKELENQEVIIEEKLETLDELLDKSELESELVEEHTYEIDNNEFLEILSFANTLYESGDFEAAKTEYKKAIALNPGNSEVHNHYGCLLEYLEKYGEAEIEFKKAVALDGSNSKAYNNLATFLAKSEKYDEAEEHYKKAIEIAPDYWAAIYNLAAMYAALKRYDEAVAQVKSMVKIFRSDGNIKEVLELKKLIKHLKKLKIQKS”, the protein production result is “failed”.
